B1: Ubiquitin-conjugating enzyme E2 T (Homo sapiens), Q9NPD8 (parent)
chain: MQRASRLKRELHMLATEPPPGITCWQDKDQMDDLRAQILGGANTPYEKGVFKLEVIIPERYPFEPPQIRFLTPIYHPNIDSAGRICLDVLKLPPKGAWRPSLNIATVLTSIQLLMSEPNPDDPLMADISSEFKYNKPAFLKNARQWTEKHARQKQKADEEEMLDNLPEAGDSRVHNSTQKRKASQLVGIEKKFHPDV
partner: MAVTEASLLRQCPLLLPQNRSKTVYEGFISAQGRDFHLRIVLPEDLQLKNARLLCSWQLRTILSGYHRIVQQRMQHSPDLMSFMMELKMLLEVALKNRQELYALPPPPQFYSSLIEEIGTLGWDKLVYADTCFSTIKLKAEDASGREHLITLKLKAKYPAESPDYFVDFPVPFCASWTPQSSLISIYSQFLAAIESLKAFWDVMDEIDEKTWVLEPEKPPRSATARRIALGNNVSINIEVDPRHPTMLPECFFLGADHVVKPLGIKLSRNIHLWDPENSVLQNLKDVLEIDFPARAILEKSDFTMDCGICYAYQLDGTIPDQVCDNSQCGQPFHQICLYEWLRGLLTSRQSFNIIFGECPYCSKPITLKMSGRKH
B2: E3 ubiquitin-protein ligase FANCL (Homo sapiens), Q9NW38-1 (parent)
chain: B1 partner

Variants of: B1
Conditions: with FANCL

| Variant | effect of a mutation on the interaction |
| --- | --- |
| R60E | disrupting interaction strength |

Variants of: B2
Conditions: with ube2t_human UBE2T

| Variant | effect of a mutation on the interaction |
| --- | --- |
| W341A | disrupting interaction strength |
| Y311A | disrupting interaction strength |
| I309A | disrupting interaction strength |

— IntAct's records for PubMed 24389026
